Reference: PMC5826319, “Control of the Nucleotide Cycle in Photoreceptor Cell Extracts by Retinal Degeneration Protein 3” (Frontiers in Molecular Neuroscience, 2018)

How the values were obtained:
[1] = molecular target: T1, Guanylate kinase (GUK), mouse, isoform 1 (mouse, UniProt Q64520-2 1-219); test: back-scattering interferometry (BSI); free solution, label-free, nothing immobilised; RD3 (or TEV protease) 0 to 300 nM titrated into lysate supernatant of stable GUK HEK-293T cells (0.1 ug/ul) in 20 mM phosphate buffer pH 7.0, 150 mM NaCl, 0.005% Tween 20; overnight at 4°C; titration of lysate without GUK subtracted; apparent KD, Hill fit; conditions: one partner purified
T1 construct: it gives an expected theoretical mass of 22 kDa, which fits about 198 aa better than the printed 219 aa; also called recombinant GUK; GUK1
T1 sequence (looked up): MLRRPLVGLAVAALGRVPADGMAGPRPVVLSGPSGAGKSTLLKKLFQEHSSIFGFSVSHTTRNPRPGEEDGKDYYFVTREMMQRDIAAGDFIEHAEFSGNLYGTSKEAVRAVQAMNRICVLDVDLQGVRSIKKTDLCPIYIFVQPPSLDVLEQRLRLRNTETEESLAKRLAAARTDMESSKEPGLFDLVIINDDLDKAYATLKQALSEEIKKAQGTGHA

[2] = molecular target: the molecule itself; test: cross-linking; purified RD3 (0.1 ug) with 0.5 mM BS3 for 2 min at room temperature, stopped with Tris-HCl pH 7.5; SDS-PAGE and anti-RD3 immunoblot; monomer to dimer
[3] = molecular target: T2, Guanylate kinase (GUK) in a soluble extract from bovine rod outer segments (bovine (endogenous in rod outer …, UniProt P46195 1-198)); test: cell-based or functional assay
T2 sequence (looked up): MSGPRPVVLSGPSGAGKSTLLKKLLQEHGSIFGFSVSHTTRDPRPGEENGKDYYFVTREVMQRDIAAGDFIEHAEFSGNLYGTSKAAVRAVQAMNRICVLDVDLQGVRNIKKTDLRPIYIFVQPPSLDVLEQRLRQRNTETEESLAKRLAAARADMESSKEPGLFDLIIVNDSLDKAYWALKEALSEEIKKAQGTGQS

[4] = molecular target: T3, Guanylate kinase (GUK) from porcine brain (porcine, UniProt P31006 1-198); test: cell-based or functional assay
T3 sequence (looked up): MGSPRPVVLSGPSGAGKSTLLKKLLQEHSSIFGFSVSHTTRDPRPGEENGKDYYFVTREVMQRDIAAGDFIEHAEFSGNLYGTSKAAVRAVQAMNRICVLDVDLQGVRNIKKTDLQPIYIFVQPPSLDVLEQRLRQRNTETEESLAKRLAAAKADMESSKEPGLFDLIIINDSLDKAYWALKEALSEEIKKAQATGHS

Kd [1]: ~100 nM | guanylate kinase activity (5'-GMP to GDP, coupled spectrophotometric assay at 340 nm), RD3 0 to 3.5 uM [3]: 2 fold | guanylate kinase activity (5'-GMP to GDP, coupled spectrophotometric assay at 340 nm), RD3 0 to 3.5 uM [4]: ~10 fold
B1: Retinal degeneration protein 3 (RD3), human, His6-tagged (natural protein, UniProt Q7Z3Z2 1-195, looked up)
chain: MSLISWLRWNEAPSRLSTRSPAEMVLETLMMELTGQMREAERQQRERSNAVRKVCTGVDYSWLASTPRSTYDLSPIERLQLEDVCVKIHPSYCGPAILRFRQLLAEQEPEVQEVSQLFRSVLQEVLERMKQEEEAHKLTRQWSLRPRGSLATFKTRARISPFASDIRTISEDVERDTPPPLRSWSMPEFRAPKAD
notes: The forward primer puts a few extra vector or primer residues before the first Met; also called RD3 - His6; His-tagged RD3
stoichiometry N [2]: 2
